Experimental data taken from patent publication US10077295B2, “Glycoproteins having lipid mobilizing properties and therapeutic uses thereof” (Aston University, priority 2010, dated 2018).

Legend:
[1] = tested on: ob/ob mice; assay: ob/ob mice treated with ZAG i.v. with or without propanolol; assay type: in vivo, mouse; details: ZAG alone
Procedure: Animals. […] Male mice (about 20 weeks of age) were grouped into three per cage and kept in an air conditioned room at 22±2° C., with ad libitum feeding of a rat and mouse breeding diet (Special Diet Services, Witham, UK) and tap water. Mice were administered ZAG (50 μg, i.v. in 100 μl PBS) or PBS daily with or without propanolol (40 mgkg^−1, po, daily) and body weight and food and water intake were determined, as well as urinary glucose excretion and body temperature, determined by the use of a rectal thermometer (RS Components, Northants, UK). A glucose tolerance test was performed on day 3. […] Blood samples were removed from the tail vein at 15, 30, 60 and 120 min after glucose administration and used for the measurements of glucose and insulin. At the end of the experiment the animals were terminated by cervical dislocation, tissues removed and rapidly frozen in liquid nitrogen, and maintained at −80° C.
To determine whether ZAG can increase insulin signalling the effect on Glut4 expression was determined.

[2] = target: T1, human β1-AR (Homo sapiens, UniProt P08588); assay: Cyclic AMP production in CHO-K1 cells transfected with β1-AR; assay type: cell-based; details: any concentration
T1 construct: host or cells: CHO-K1
T1 sequence (P08588 whole entry): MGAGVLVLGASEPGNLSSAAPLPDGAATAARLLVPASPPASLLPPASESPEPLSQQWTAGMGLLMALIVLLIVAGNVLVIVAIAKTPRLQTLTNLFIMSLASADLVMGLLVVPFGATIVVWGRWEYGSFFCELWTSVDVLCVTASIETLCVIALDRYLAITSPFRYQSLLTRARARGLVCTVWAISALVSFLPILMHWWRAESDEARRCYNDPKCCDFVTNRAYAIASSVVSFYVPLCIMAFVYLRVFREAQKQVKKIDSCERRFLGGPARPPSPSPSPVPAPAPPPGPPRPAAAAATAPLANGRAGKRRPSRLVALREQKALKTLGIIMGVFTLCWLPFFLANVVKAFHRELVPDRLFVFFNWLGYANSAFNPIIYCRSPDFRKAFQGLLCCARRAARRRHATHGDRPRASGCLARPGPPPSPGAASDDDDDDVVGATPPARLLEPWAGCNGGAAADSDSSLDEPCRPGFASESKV
Procedure: (§1) Binding Studies and Cyclic AMP Determination. CHO-K1 cells transfected with the human β1- and β2-AR obtained from University of Nottingham, UK, while CHOK1 cells transfected with the β3-AR were obtained from Astra Zeneca, Macclesfield, Cheshire, UK. Gene expression was under the control of hygromycin, together with a β-gal reporter construct, selected for resistance to G418. They were maintained in DMEM supplemented with 2 mM glutamine, hygromycin B ([…]), G418 ([…]), and 10% FCS, under an atmosphere of 10% CO2 in air. To determine the effect of agonists on cyclic AMP production, cells were grown in 24-well plates containing 1 ml of nutrient medium.

[3] = tested on: ob/ob mice; assay: Interval / long-term administration of ZAG in ob/ob mice (pilot study); assay type: in vivo, mouse
Procedure: While not wanting to be limited by theory, it may be that the subjects are receiving too much ZAG or that there is receptor desensitization as is seen with TNF. A pilot study was performed with 2 mice in each group to determine optimal scheduling of ZAG delivery.

[4] = tested on: ob/ob mice; assay: Insulin tolerance test in ob/ob mice administered ZAG for 3 days; assay type: in vivo, mouse
Procedure: An insulin tolerance test was also carried out in ob/ob mice administered ZAG for 3 days (FIG. 23). Animals were administered two doses of insulin (10 and 20 U/kg) by i.p. injection and blood glucose was measured over the next 60 min. […] The glucose disappearance curve for 20 U/kg+PBS was almost identical to 10 U/kg+ZAG, so at this dose level ZAG is reducing the requirement for insulin by 50%, but this can be overcome by giving more insulin.

[5] = tested on: β3-AR, β1-AR and β2-AR expression; assay: Western blot of β-AR expression in tissues of ob/ob mice after 5 days ZAG; assay type: in vivo, mouse
Procedure: Western Blot Analysis. WAT, BAT, heart and gastrocnemius muscle were thawed, washed in PBS, and lysed in Phosphsafe™ Extraction reagent for 5 min at room temperature, followed by sonication at 4° C. The supernatant formed by centrifugation at 18,000 g for 5 min at 4° C. was used for Western blotting. Cytosolic protein (5 μg for UCP's and 20 μg for β-AR) was resolved on 12% sodium dodecylsulphate polyacrylamide gels by electrophoresis at 180V for about 1 h and transferred on to 0.45 μm nitrocellulose membranes, which had been blocked with 5% (w/v) non-fat dried milk (Marvel) in Tris-buffered saline, pH 7.5, at 4° C. overnight. Prior to adding the primary antibodies membranes were washed for 15 min in 0.1% Tween 20-buffered saline. Both primary and secondary antibodies were used at a dilution of 1:1000. Incubation was for 1 h at room temperature and development was by ECL. Blots were scanned by a densitometer to quantify differences.

[6] = target: β3-AR (Homo sapiens, UniProt P13945); assay: Cyclic AMP production in CHO-K1 cells transfected with β3-AR; assay type: cell-based; set-up: host or cells: CHO-K1; details: CHO-K1 β3-AR
β3-AR, sequence (P13945 whole entry): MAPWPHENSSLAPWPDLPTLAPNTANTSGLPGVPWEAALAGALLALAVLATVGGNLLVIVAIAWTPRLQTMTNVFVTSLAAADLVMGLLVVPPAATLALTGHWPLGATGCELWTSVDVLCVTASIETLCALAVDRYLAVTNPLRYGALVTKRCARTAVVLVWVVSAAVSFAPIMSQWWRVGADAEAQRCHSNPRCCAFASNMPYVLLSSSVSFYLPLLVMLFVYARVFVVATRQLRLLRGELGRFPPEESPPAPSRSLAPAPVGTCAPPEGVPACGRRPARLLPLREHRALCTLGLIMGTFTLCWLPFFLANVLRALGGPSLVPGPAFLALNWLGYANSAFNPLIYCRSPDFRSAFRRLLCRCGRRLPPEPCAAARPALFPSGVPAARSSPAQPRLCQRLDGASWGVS
Procedure: as §1

[7] = target: T2, human β2-AR (Homo sapiens, UniProt P07550); assay: Cyclic AMP production in CHO-K1 cells transfected with β2-AR; assay type: cell-based; details: CHO-K1 β2-AR
T2 construct: host or cells: CHO-K1
Procedure: as §1

[8] = tested on: gastrocnemius muscle of ob/ob mice; assay: Proteasome activity and Western blots in gastrocnemius muscle of ZAG-treated ob/ob mice; assay type: in vivo, mouse
Procedure: Measurement of Proteasome and Caspase Activity. […] Gastrocnemius muscle was homogenised in 20 mM Tris, pH7.5, 2 mM ATP, 5 mM MgCl2 and 50 mM DTT at 4° C., sonicated and centrifuged at 18,000 g for 10 min at 4° C. to pellet insoluble material, and the resulting supernatant was used to measure ‘chymotrypsin-like’ enzyme activity in the presence or absence of the proteasome inhibitor lactacystin (10 μM). Only lactacystin suppressible activity was considered as true proteasome activity. The activity of caspase-3 was determined by the release of AMC from AcAsp.Gly.Val.Asp.AMC (SEQ ID NO: 3), and the activity of caspase-8 was determined by the release of 7-amino-4-trifluromethylcoumarin (AFC) from the specific substrate Z-Ile Glu Phe Thr Asp-AFC (SEQ ID NO: 4), using the supernatant from above (50 μg protein), and either the caspase-3 or -8 substrate (10 μM) for 1 h at 37° C., in the presence or absence of the caspase-3 (AcAspGluValAsp-CHO) (SEQ ID NO: 5) or caspase-8 (Ile Glu Phe Thr Asp-CHO) (SEQ ID NO: 6) inhibitors (100 μM). The increase in fluorescence due to […] was determined as above, while the increase in fluorescence due to AFC was measured with an excitation wavelength of 400 nm and an emission wavelength of 505 nm. The difference in values in the absence and presence of the caspase inhibitors was a measure of activity.
Western Blot Analysis. Freshly excised gastrocnemius muscles were washed in PBS and lysed in PHOSPHOSAFE™ Extraction Reagent for 5 min at room temperature followed by sonication at 4° C. The lysate was cleared by centrifugation at 18,000 g for 5 min at 4° C. and samples of cytosolic protein (5 μg) were resolved on 12% sodium dodecyl sulfate-polyacrylamide gel electrophoresis at 180V for approximately 1 h. This was followed by transference to 0.45 μm nitrocellulose membranes, which were then blocked with 5% Marvel in Tris-buffered saline, pH 7.5, at 4° C. overnight. Both primary and secondary antibodies were used at a dilution of 1:1000 except anti-myosin (1:250). Incubation was for 1 h at room temperature, and development was by ECL. Blots were scanned by a densitometer to quantify differences.

B1: ZAG: recombinant full length human zinc-α2-glycoprotein (SEQ ID NO: 1) secreted by transfected HEK293F cells; lipid mobilizing factor (protein, listed as Homo sapiens)
chain: QENQDGRYSLTYIYTGLSKHVEDVPAFQALGSLNDLQFFRYNSKDRKSQPMGLWRQVEGMEDWKEDSQLQKAREDMETLKDIVEYYNDSNGSHVLQGRFGCEIENNRSSGAFWKYYYDGKDYIEFNKEIPAWVPFDPAAQITKQKWEAEPVYVQRAKAYLEEECPATLRKYLKYSKNILDRQDPPSVVVTSHQAPGEKKKLKCLAYDFYPGKIDVHWTRAGQVQEPELRGDVLHNGNGTYQSWVVVAVPPQDTAPYSCHVQHSSLAQPLVVPWEAS
- effect on liver lipids [1]: no effect on liver lipids
- cyclic AMP production [2]: no increase in cyclic AMP
- weight loss ([3]; from a 90 g mouse, in about 3 weeks): 8 to 10 g
- outcome of long-term daily administration ([3]; ob/ob mice): cessation of weight loss
- reduction of the requirement for insulin ([4]; 10 U/kg insulin+ZAG vs 20 U/kg+PBS): 50%
- sensitivity to insulin ([4]; insulin 10 U/kg i.p.): increased sensitivity to insulin
- expression of β1-AR or β2-AR in gastrocnemius muscle or WAT [5]: no change in expression
- increase in β3-AR expression in BAT [5]: 89%
- increase in β3-AR expression in WAT [5]: 85%
- β3-AR expression in gastrocnemius muscle [5]: two-fold increase
- lowest concentration to stimulate cyclic AMP production [6]: 350 nM
- concentration required to stimulate cyclic AMP production [7]: 580 nM
- expression of 20S proteasome α-subunits and p42 ([8]; gastrocnemius muscle): decreased expression
- phosphorylated forms of PKR and eIF2α ([8]; gastrocnemius muscle): reduction in the level of phosphorylated forms
- proteasome 'chymotrypsin-like' enzyme activity ([8]; gastrocnemius muscle): decreased activity
- myosin levels ([8]; skeletal muscle): increased
